Results published in the DeepSol protein solubility set.

Assay: soluble on expression in E. coli; label from the status in PepcDB or PDB records

Sequence | soluble on expression in E. coli
MGSDKIHHHHHHMKILQIVPSISLIYGGPSQMVLGLAPALVKEGVEVTILTTDSNGDNGQTPLDVPLNRPIKQDGYEIIYFRCAPFRRYKFSLDLLKWLKRHAHEFDLAHIHALFSPIISAAAIVCRQQKLPYIFRPLGTLDPADLRKKKQLKQLYVAIIERQNLASAAAIHFTSEQEAKISERFGVSTPDLVIPLGVIPRQSSLKNVCSQLEIPKDVPLVLFMSRIDPKKGLNLLIPALEKLLAVGYKFHFVLAGTNPQDPDYEQKIISQIQNSPLRSHTTITGFVTGELKVSLLQAADLFVLPSYYENFGIAVAEAMVAGVPVVISDQVHICQQIRDSESGWVGATDVQALVELLQAALQNPAERQRRGLNAQKYALENFSWDAIARQTIQAYQKILANK | not soluble
LIGYVRVSTNDQNTDLQRNALNCAGCELIFEDKISGTKSERPGLKKLLRTLSAGDTLVVWKLDRLGRSMRHLVVLVEELRERGINFRSLTDSIDTSTPMGRFFFHVMGALAEMERELIVERTKAGLETARAQGRIGGRRPKLTPEQWAQAGRLIAAGTPRQKVAIIYDVGVSTLYKRFPAGDK | soluble
MGSDKIHHHHHHMDINADFSERVMVQSADLDWVASPMPGVDRRMLDRIGGEVARATSIVRYAPGSNFSAHTHTGGEEFVVLDGVFQDEHGDYPAGTYVRNPPTTSHTPGSDEGCTIFVKLWQFDMDDRTQFRRDMAAGGDRSVLHEDAFEIVTYHRLAPGAALEDPADGGAELLVLAGSLTEGGDTLITGGWLRLPESSTMHAVAGSEGATVWMKTGHLPHAKPPAVGRTR | not soluble
MWGQTNMADKKSPLIAVSVGEASGDLLGAHLIRAIRKRCPQARFTGIGGELMKAEGFESLYDQERLAVRGFVEVVRRLPEILRIRRGLVRDLLSLKPDVFVGIDAPDFNLGVAEKLKRSGIPTVHYVSPSVWAWRRERVGKIVHQVNRVLCLFPMEPQLYLDAGGRAEFVGHPMAQLMPLEDDRETARQTLGVDAGIPVFALLPGSRVSEIDYMAPVFFQTALLLLERYPAARFLLPAATEATKRRLAEVLQRPEFAGLPLTVIDRQSETVCRAADAVLVTSGTATLEVALCKRPMVISYKISPLTYAYVKRKIKVPHVGLPNILLGKEAVPELLQSEAKPEKLAAALADWYEHPDKVAALQQDFRALHLLLKKDTADLAARAVLEEAGC | not soluble
MGSSHHHHHHSSGRENLYFQGHMKNLLDLSYEELVTEITNLGLERYRADQILDWVFDKKVNNFDEMTNLSKKHRALLKEHFSISFLKLLDKKVSRIDGTTKFLWELEDGNTIESVMLFHPDRITACISTQVGCPVKCIFCATGMSGFVRNLTTGEIVAQILSMEKEEKKKIGNVVYMGMGEPLLNYENTIKSIRILNHKKMGNIGIRRITISTVGIPDRIIQLAEEGLDVKLALSLHAPTNFKRDQLVPLNKKYSIEEILNAVKIYQRKTGNRVTIEYVLIRGINDEISDAKKLAEILRNMKVFVNLIPVNPTVEGLRRPSRERLLTFKRILLENGIEAEIRREKGTDIEAACGQLRLKRIKSRS | soluble
MEQVVIVDAIRTPMGRSKGGAFRNVRAEDLSAHLMRSLLARNPSLTAATLDDIYWGCVQQTLEQGFNIARNAALLAEIPHSVPAVTVNRLCGSSMQALHDAARMIMTGDAQVCLVGGVEHMGHVPMSHGVDFHPGLSRNVAKAAGMMGLTAEMLSRLHGISREMQDQFAARSHARAWAATQSGAFKTEIIPTGGHDADGVLKQFNYDEVIRPETTVEALSTLRPAFDPVSGTVTAGTSSALSDGAAAMLVMSESRARELGLKPRARIRSMAVVGCDPSIMGYGPVPASKLALKKAGLSASDIDVFEMNEAFAAQILPCIKDLGLMEQIDEKINLNGGAIALGHPLGCSGARISTTLINLMERKDAQFGLATMCIGLGQGIATVFERV | soluble
MGSDKIHHHHHHMNKELFCIENLRVAYPQRSGEELQWAIDDVSFTLQPGERMGLVGESGCGKSTLGRAAMRLLPPSSLVEGRVTFQGKSVFDLTPNELRKFRGEAVALIFQDPMTRLDPLMTIGNHCIETLQAHAPELSAKEAKEKALATLEKVKIPASRWGQYPHEFSGGMRQRVAIALALLLNPKLIVADEPTTSLDVTVSAQILQELTRLCSEENMALLLISHDLAMVAEYCSRIGVMYNGKMVEMGTTESVFKNPQHEYTRSLLKAALHIQAVDEGSSEASQSPIPSPQSPILRITELKQYYTIEPNFVERLFKAESQTIKAVDGINLELYPGEILGLVGESGCGKSTLSRTILQLIRPTSGKVEFLGQDLTKLSRQEIRACRRQIQMVFQDPHACLNPAMTVGESIADPLLIHHLADAAKAKEQVLWMLQKVGLTPPEVYYQRYPSDLSGGQQQRVAIARALITRPKMLICDEPVSMLDASVQSQVLDLMLQLKEEFELTYLFITHDLWLARFLCDRIAVMHGGKIVELGETKQIFAHPQHPYTQTLLAAAPLLARA | not soluble
MGSDKIHHHHHHAQRIEELPAVPLQIGYEKTLHLIFPTEVKYYSIGGDYVIGEKVGNCPEIIRLKAAEENFPGETTLSVVTADTKFYSYAISYNAHPVESYVRVDGQAPAPHTLPVGKDRQMFLIFPAGITYVDYGSTNVEVEKAEGVDNILAVKATGEFTEDTNISAVVEGGKFYTFNLHYAPFPERFSFVIDKEKTQRVAILDERERSSEQKERIRQAISKRIPLDLGLKDKNAGMEFEVGNIFIDGDILLLRMTLTNRTQIGYTTDFMRFYIQDAKIHKKTAVQQIEQNILFAFDYPEEIPAHESRTFTVAMNKFTIPDKKRLIIEIQERNGGRHFLYKLKNKSLLGAEEVFRSLQEQKTEDEADRILRRISR | not soluble
GPGSMGKYAAVIIGPAGSGKSTLCGVLAEHYATMGRSTHIANMDPAADLLPYEPSMDIRDLISLEDAMEGKGLGPNGGLVFCMEYLVTAGATWVSQQLGDYADDFIIVDMPGQVEVLSNQPAVPAFVRLLQQEGYYTTVLYLLDALATTADSGKFISGCMFSLSSMVCFDCPFINVLTKCDLLSKDFKENGMLEHFCMCDFDYMDLSRLPPRFRAMSRQIGALLTDFNLVTFRPVDIEDVGYVSNLCSVLDETLQVADEAEVQDHDLGDN | soluble
MGSDKIHHHHHHMKITVLYSGNYGERVLNTILEKFAQNIVSIHEIPENLPEYIDDVSEYVPENLKESDLIISVGLFGDINLIVCDIAKKTNAKSIIIESHSPKQVTKGLKSEISDSLNEIKIVFPKPFCSLKPVGDTYIDEFAKYFGSPEIEIIGETIVKSVIVKRNAPCGSTKYVAENLTGYSLNEVEFESGNKLHNYPCLASMDVDNEIGDTILHLAGYKIKEAVKKSLKFSNKILTVTGDCKGFECGFKCYKICPVVKMGENAVEIEKTHVNINNLFCGCCMKCVDICPFNAIKVLNYKI | not soluble
MADGINSTVTVERSDGPRHRGTAAGIGGLDLDLEDVTHKELIEARRTGDVGLVHSWELVTAVDGPGTRMTMFMSGCPLRCLYCHNPDTMGMKEGTVERVESIVKKIKRYRNVFKASGGGLTISGGEPLFQIAFTRRVLKEVHDAGIHTTIDTSGYLGARLTDEDLENIDLVLLDVKSGDEETYHRVSGGRELQPTIDFGNRLNAIGKPVWIRFVLVPGVSDAPENINNVADIVAQWKDNVERVEVLPFHNMGADKWHELGLNYELEDTKPPTQESVEFAKETFRSRGLTVY | not soluble
MTPDVLFESLWQDYIQRLCPSAAKVHQLLQEDEALINDHIALRTFNVEPLGIETLAKPFLAAGYKACGDYVFESKKLVAKHYEHPDPKQPKVFISELKVEECSPDLQDIVAKLASQVDAEKLSGSAFLHGGRLWDLSFADYQTLAKESEYASWLAAHGYGANHFTVSVNQLNQHDEVKQVNDHLRQAGFVINESGGEVKGSPEVLLEQSSTMADKVPVTFEEGLEIIPGGFYEFAKRYPMENGELYPGFVAASADKIFESTNGLEHHHHHH | soluble
MSLDANVRTVKWNGIPLHEASSAIVKEETNGDFYLTVRYPITDSGIYQLIKEDMLIKSPVPVLGAQLFRIKKPIENDDSMDITAYHVSDDIMKRSITPVSVVGQGCAMALSQMVQNAKTGLGDFSFTSDIMDSRTFNTTETETLYSVLMDGKHSIVGTWEGELVRDNFALSIKRSRGADRGVVITTHKNLKSYQRTKNSQGVVTRIHARSTFKPDGAEDEVTLRVSVDSPLINSYPYINEKEYENNNAETVEDLRKWAEAKFTNEGIDKVSDAIEIEAYELDGQVVNLGDTVNLKSRKHSADLYKKAIAYEFNALTEEYISITFDDKPGVGGSGVSSGLSNVADAILVASATAQDVAVQRAVKNANAAFDAEFGKTKTKINDDIEIAKAKVESFKSELSNRMDNQLLPLATEAKNLASQAQADLTRKEIELRAELNREGHHHHHH | not soluble
MPFEKYTVPVSGRSDAAIEEELTRLRAELAAEYDLREVVHRFGESDFTFLSVLDSYALLDRIDPAAFVKDEQMPYWAEIWPAAVTLSRQIVETGELAGKSVLELGAGVGMASIAAARSGARVLCTDYSTEALRFVAYNAMKNRVPLDTARLDWRMVKGAEKFDAVIAADVLYERVNLLPIVTAIDALLAPGGAAYIADPRRRLADQFLELVHENGFEVAETRMFDAEGDQTVAVTIYKLQRLKALEHHHHHH | soluble
RQRSLSTSGESLYHVLGLDKNATSDDIKKSYRKLALKYHPDKNPDNPEAADKFKEINNAHAILTDATKRNIYDKYGSLGLYVAEQFGEENVNTYFV | soluble
GAMEATEIISTLSNGLIASHYGVSFFTIQSFVSSLSNTSTLKNMLYVLSTAVEFESVPLRKGDRALLVKLSKRLPLRFPEHTSSGSVSFKVFLLLQAYFSRLELPVDFQNDLKDILEKVVPLINVVVDILSANGYLNATTAMDLAQMLIQGVWDVDNPLRQIPHFNNKILEKCKEINVETVYDIMALEDEERDEILTLTDSQLAQVAAFVNNYPNVELTYSLNNSDSLISGVKQKITIQLTRDVEPENLQVTSEKYPFDKLESWWLVLGEVSKKELYAIKKVTLNKETQQYELEFDTPTSGKHNLTIWCVCDSYLDADKELSFEINVK | soluble
MQDLIKQYNTTLRQLREAQKDAKEEDVKVLTDMISDITYSLEWMKKARRPGNRRGVERLAAYQRERACDPLLMQRYFRSMDDNLYEWDNHQQEHSIGEWDKVRLEDALSLLTEREKEVYLMSRGYCLTYREIARYLDITCSTVQSMIERAEKKIARQVNESLFCNCG | not soluble
MAHHHHHHMRKLSGDLKATAATPLTPPVTTPQPQPDGTDRSKSAGGQATYEPLHVLGQGSFGVVMMARVRETGKMVAVKKVLFDRRLHHRELLLLRDHLGPGTHAGQAGTGNHDDPGKEAGKTDPSNTNNSAGEVGFTPLGDLASVPTTVSYHPCIVRLLDHFTVAGPNGEQYLYIVMDYLPLDIHHLHHIYLRQKQQRMPFILVKVIMFQLARALMFLHLRGICHRDVKPSNLLIDPETGVLKLCDFGSAKVMQPQGVNGPIEKNVSYICSRYYRAPELLLGSLYYHFHVDMWAAGCVLAELLCGEVLFKGASTVDQMAEIFKVLGAPSRQELLALNPQGAEALFHATGAGLEVTPTSAANTATSSDYLQRYHALRIKALQWQNVLPPNTPPAAVSLVGELLRYTPAERLSAAEVLEHSFFDDIFAEDASLPNGAPLPVSMFEVTAEEMEALPPWLLERMASAEASARRRHVSAGGSGKVVPPQKRQEQEGRK | not soluble
MIETSLDFSGLNDIAKDLEALSRAENNKVLRDATRAGAEVLKEEVIDRAPVRTGKLKKNVVVVTQKSRRRGEISSGVHIRGVNPRTGNSDNTMKANNPRNAFYWRFVELGTANMPAHPFVRPAYDTREEEAASVAIARMNQAIDEVLSK | not soluble
LLLYIHGFNSSPLSMKANLMREYCAQHRPDIKVIVPQLPCFPEQAAQLLLDIVEQYKDDYNIGLVGSSLGGYMSTWLNAKYGFKAVVVNPAVKPYELLVDYLGEQTNPYTRETYTLEACHIDELKALDVQSIASPHSFWLLQQTEDEVLDYRQAVDKFAKAKQTVEQGGDHSFVGFERYPAKIIEFLE | not soluble
